In the supplement of paper PMC9112550, “Optimization of the antimicrobial peptide Bac7 by deep mutational scanning” (BMC Biology, 2022):

Tested on: Escherichia coli TOP10
Experiment: shrunken log2 fold change of peptide-encoding DNA abundance (4.5 h post-induction vs induction); higher = less antimicrobial activity (less host growth inhibition)
Conditions: time post-induction: 4.5 h; library: site-saturation at positions 5, 18, 19, 20
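Note: peptides expressed intracellularly from a pBAD plasmid library in pooled LB shake-flask culture, induced with 0.3% L-arabinose, DNA abundance read by NGS, three biological replicates, DESeq2 with apeglm shrinkage.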

In order of rising “shrunken log2 fold change” value:
1. RRIRERPPRLPRPRPRPGNIPRP  -0.989
2. RRIRFRPPRLPRPRPRPKDYPRP  -0.788
3. RRIRHRPPRLPRPRPRPYAPPRP  -0.737
4. RRIRFRPPRLPRPRPRPQILPRP  -0.713
5. RRIRYRPPRLPRPRPRPNTRPRP  -0.703
6. RRIRWRPPRLPRPRPRPKYSPRP  -0.654
7. RRIRIRPPRLPRPRPRPCFEPRP  -0.626
8. RRIRTRPPRLPRPRPRPFMPPRP  -0.618
9. RRIRCRPPRLPRPRPRPMLIPRP  -0.552
10. RRIRFRPPRLPRPRPRPMNQPRP  -0.528
11. RRIRHRPPRLPRPRPRPHQHPRP  -0.526
12. RRIRPRPPRLPRPRPRPFLLPRP  -0.516
13. RRIRFRPPRLPRPRPRPDFLPRP  -0.453
14. RRIRKRPPRLPRPRPRPFWIPRP  -0.414
15. RRIRSRPPRLPRPRPRPHKHPRP  -0.411
16. RRIRLRPPRLPRPRPRPSEVPRP  -0.396
17. RRIRNRPPRLPRPRPRPNLTPRP  -0.335
18. RRIRCRPPRLPRPRPRPFVGPRP  -0.315
19. RRIRPRPPRLPRPRPRPCYWPRP  -0.294
20. RRIRHRPPRLPRPRPRPNHFPRP  -0.262
21. RRIRVRPPRLPRPRPRPMHHPRP  -0.257
22. RRIRQRPPRLPRPRPRPNFHPRP  -0.232
23. RRIRPRPPRLPRPRPRPVNIPRP  -0.226
24. RRIRQRPPRLPRPRPRPNSYPRP  -0.225
25. RRIRTRPPRLPRPRPRPEHIPRP  -0.223
26. RRIRCRPPRLPRPRPRPHLMPRP  -0.223
27. RRIRHRPPRLPRPRPRPLMAPRP  -0.206
28. RRIRSRPPRLPRPRPRPNRLPRP  -0.205
29. RRIRPRPPRLPRPRPRPVYKPRP  -0.199
30. RRIRVRPPRLPRPRPRPKLIPRP  -0.198
31. RRIRYRPPRLPRPRPRPCSDPRP  -0.187
32. RRIRTRPPRLPRPRPRPWLQPRP  -0.187
33. RRIRVRPPRLPRPRPRPEMKPRP  -0.184
34. RRIRLRPPRLPRPRPRPLAHPRP  -0.174
35. RRIRWRPPRLPRPRPRPWRLPRP  -0.172
36. RRIRARPPRLPRPRPRPYVEPRP  -0.162
37. RRIRMRPPRLPRPRPRPLMIPRP  -0.159
38. RRIRDRPPRLPRPRPRPLEFPRP  -0.158
39. RRIRTRPPRLPRPRPRPYFSPRP  -0.156
40. RRIRQRPPRLPRPRPRPIHQPRP  -0.15
41. RRIRDRPPRLPRPRPRPHMLPRP  -0.144
42. RRIRSRPPRLPRPRPRPFEYPRP  -0.115
43. RRIRVRPPRLPRPRPRPIWQPRP  -0.114
44. RRIRKRPPRLPRPRPRPMKQPRP  -0.108
45. RRIRYRPPRLPRPRPRPSPDPRP  -0.0956
46. RRIRFRPPRLPRPRPRPYKEPRP  -0.0907
47. RRIRERPPRLPRPRPRPDSMPRP  -0.076
48. RRIRRRPPRLPRPRPRPSCQPRP  -0.0699
49. RRIRCRPPRLPRPRPRPFELPRP  -0.0697
50. RRIRWRPPRLPRPRPRPRKQPRP  -0.0611
51. RRIRTRPPRLPRPRPRPYYEPRP  -0.0557
52. RRIRFRPPRLPRPRPRPTLHPRP  -0.0536
53. RRIRLRPPRLPRPRPRPYYQPRP  -0.0534
54. RRIRVRPPRLPRPRPRPKVFPRP  -0.0519
55. RRIRHRPPRLPRPRPRPAVNPRP  -0.0508
56. RRIRLRPPRLPRPRPRPWQYPRP  -0.0471
57. RRIRTRPPRLPRPRPRPFCEPRP  -0.0463
58. RRIRTRPPRLPRPRPRPDYSPRP  -0.0445
59. RRIRHRPPRLPRPRPRPDDNPRP  -0.0371
60. RRIRYRPPRLPRPRPRPQDEPRP  -0.0312
61. RRIRIRPPRLPRPRPRPRMWPRP  -0.0292
62. RRIRQRPPRLPRPRPRPEDRPRP  -0.0214
63. RRIRCRPPRLPRPRPRPQEEPRP  -0.0124
64. RRIRKRPPRLPRPRPRPGELPRP  -0.012
65. RRIRLRPPRLPRPRPRPAIGPRP  -0.00988
66. RRIRTRPPRLPRPRPRPDQWPRP  -0.00805
67. RRIRKRPPRLPRPRPRPHCPPRP  -0.00424
68. RRIRRRPPRLPRPRPRPEVQPRP  -0.00368
69. RRIRPRPPRLPRPRPRPYAGPRP  -0.00254
70. RRIRYRPPRLPRPRPRPVKRPRP  -0.00146
71. RRIRYRPPRLPRPRPRPDRSPRP  0.00326
72. RRIRNRPPRLPRPRPRPFTNPRP  0.00408
73. RRIRHRPPRLPRPRPRPMESPRP  0.00489
74. RRIRWRPPRLPRPRPRPWHQPRP  0.00792
75. RRIRCRPPRLPRPRPRPCETPRP  0.0192
76. RRIRKRPPRLPRPRPRPLTSPRP  0.0205
77. RRIRARPPRLPRPRPRPQVQPRP  0.0275
78. RRIRHRPPRLPRPRPRPSGRPRP  0.0298
79. RRIRERPPRLPRPRPRPTMVPRP  0.0432
80. RRIRIRPPRLPRPRPRPRLGPRP  0.0473
81. RRIRRRPPRLPRPRPRPSMSPRP  0.0591
82. RRIRIRPPRLPRPRPRPRLWPRP  0.0665
83. RRIRMRPPRLPRPRPRPKYRPRP  0.0666
84. RRIRERPPRLPRPRPRPGQIPRP  0.0685
85. RRIRPRPPRLPRPRPRPTWFPRP  0.0698
86. RRIRPRPPRLPRPRPRPPMMPRP  0.0805
87. RRIRPRPPRLPRPRPRPKVTPRP  0.0845
88. RRIRVRPPRLPRPRPRPNEPPRP  0.097
89. RRIRMRPPRLPRPRPRPEEPPRP  0.0975
90. RRIRMRPPRLPRPRPRPYMYPRP  0.0981
91. RRIRDRPPRLPRPRPRPVFPPRP  0.108
92. RRIRMRPPRLPRPRPRPAHSPRP  0.111
93. RRIRRRPPRLPRPRPRPRHCPRP  0.119
94. RRIRSRPPRLPRPRPRPAEMPRP  0.125
95. RRIRLRPPRLPRPRPRPFEEPRP  0.127
96. RRIRQRPPRLPRPRPRPLPTPRP  0.131
97. RRIRDRPPRLPRPRPRPHCWPRP  0.15
98. RRIRQRPPRLPRPRPRPPYRPRP  0.158
99. RRIRKRPPRLPRPRPRPPWKPRP  0.173
100. RRIRRRPPRLPRPRPRPKLMPRP  0.178
101. RRIRQRPPRLPRPRPRPAAHPRP  0.179
102. RRIRLRPPRLPRPRPRPRTTPRP  0.182
103. RRIRSRPPRLPRPRPRPTWEPRP  0.187
104. RRIRDRPPRLPRPRPRPTKQPRP  0.188
105. RRIRKRPPRLPRPRPRPTVGPRP  0.197
106. RRIRLRPPRLPRPRPRPVWNPRP  0.2
107. RRIRMRPPRLPRPRPRPKVTPRP  0.209
108. RRIRERPPRLPRPRPRPWPRPRP  0.223
109. RRIRRRPPRLPRPRPRPICIPRP  0.232
110. RRIRERPPRLPRPRPRPPGVPRP  0.232
111. RRIRKRPPRLPRPRPRPLCHPRP  0.252
112. RRIRPRPPRLPRPRPRPVGSPRP  0.261
113. RRIRDRPPRLPRPRPRPDCYPRP  0.269
114. RRIRYRPPRLPRPRPRPPTRPRP  0.277
115. RRIRLRPPRLPRPRPRPGRTPRP  0.292
116. RRIRGRPPRLPRPRPRPQRWPRP  0.293
117. RRIRGRPPRLPRPRPRPKCRPRP  0.299
118. RRIRPRPPRLPRPRPRPAGFPRP  0.301
119. RRIRRRPPRLPRPRPRPASGPRP  0.302
120. RRIRARPPRLPRPRPRPQANPRP  0.304
121. RRIRYRPPRLPRPRPRPPRKPRP  0.319
122. RRIRERPPRLPRPRPRPDPPPRP  0.32
123. RRIRNRPPRLPRPRPRPGRFPRP  0.327
124. RRIRQRPPRLPRPRPRPLRKPRP  0.356
125. RRIRCRPPRLPRPRPRPWPAPRP  0.375
126. RRIRLRPPRLPRPRPRPRKSPRP  0.376
127. RRIRFRPPRLPRPRPRPDAKPRP  0.417
128. RRIRNRPPRLPRPRPRPPGPPRP  0.419
129. RRIRWRPPRLPRPRPRPRGNPRP  0.423
130. RRIRKRPPRLPRPRPRPLVMPRP  0.432
131. RRIRSRPPRLPRPRPRPFATPRP  0.461
132. RRIRRRPPRLPRPRPRPRTCPRP  0.477
133. RRIRMRPPRLPRPRPRPRTFPRP  0.541
134. RRIRRRPPRLPRPRPRPRWPPRP  0.598
135. RRIRFRPPRLPRPRPRPTWMPRP  0.611
136. RRIRDRPPRLPRPRPRPGSTPRP  0.637
137. RRIRKRPPRLPRPRPRPVFWPRP  0.666
138. RRIRHRPPRLPRPRPRPRAPPRP  0.741
139. RRIRCRPPRLPRPRPRPRVWPRP  0.747
140. RRIRGRPPRLPRPRPRPVGSPRP  0.749
141. RRIRNRPPRLPRPRPRPEPPPRP  0.758
142. RRIRGRPPRLPRPRPRPVCVPRP  0.891
143. RRIRMRPPRLPRPRPRPRWWPRP  1.11
144. RRIRGRPPRLPRPRPRPPPLPRP  1.16
145. RRIRGRPPRLPRPRPRPKATPRP  1.52
146. RRIRMRPPRLPRPRPRPDCIPRP  1.76
147. RRIRCRPPRLPRPRPRPAHCPRP  1.77
148. RRIRERPPRLPRPRPRPGTSPRP  1.87
149. RRIRKRPPRLPRPRPRPEEPPRP  3.09
150. RRIRRRPPRLPRPRPRPIYAPRP  3.39
